Measured values taken from publication PMC9030890.

Target: recombinant stabilised complete spike protein (SARS-CoV-2), pre-fusion (SARS-CoV-2) (UniProt P0DTC2)
Experiment: affinity purification with mass spectrometry

Substance “human serum albumin (from UniProt P02768 25-609) (natural protein)” has a mean MALDI-ToF peak intensity of HSA eluted from the beads of 1920 AU.
